In US20250092135A1 (NANJING LEADS BIOLABS, published 2025):

Tests used:
[1] = biological target: T1, rhesus monkey MUC16 protein (ECT_TM RhMuc16) on 293T cells (rhesus monkey); test: flow cytometry, 293T/rhesus MUC16 cells as printed on the sheet and in the legend (the example, paragraph 611, speaks of cynomolgus MUC16), PE anti-human IgG Fc secondary, MFI; EC50 table under the plot, unit from the axis Conc.(nM); curve still rising at the top concentration of 100 nM
T1 chain: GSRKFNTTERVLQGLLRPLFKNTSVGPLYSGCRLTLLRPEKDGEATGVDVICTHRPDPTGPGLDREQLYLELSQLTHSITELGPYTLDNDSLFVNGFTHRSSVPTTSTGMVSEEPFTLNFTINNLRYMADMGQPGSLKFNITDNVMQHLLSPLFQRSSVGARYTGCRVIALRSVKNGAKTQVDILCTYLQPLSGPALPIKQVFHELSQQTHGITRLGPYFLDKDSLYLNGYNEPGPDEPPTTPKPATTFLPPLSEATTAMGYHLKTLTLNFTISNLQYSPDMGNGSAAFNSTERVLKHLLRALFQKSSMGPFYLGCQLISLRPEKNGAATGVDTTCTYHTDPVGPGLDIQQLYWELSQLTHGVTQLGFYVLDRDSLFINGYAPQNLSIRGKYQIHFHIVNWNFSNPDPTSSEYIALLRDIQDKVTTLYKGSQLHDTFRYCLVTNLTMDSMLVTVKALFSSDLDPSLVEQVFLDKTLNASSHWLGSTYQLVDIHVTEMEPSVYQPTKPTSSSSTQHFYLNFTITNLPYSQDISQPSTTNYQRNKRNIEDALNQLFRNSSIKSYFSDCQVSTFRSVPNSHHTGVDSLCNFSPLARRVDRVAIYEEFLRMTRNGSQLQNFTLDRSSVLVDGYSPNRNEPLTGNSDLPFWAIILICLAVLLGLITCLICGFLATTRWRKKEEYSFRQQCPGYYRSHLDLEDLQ
Protocol: (§1) Referring to the flow cytometry described above, the serially diluted test bispecific antibody (at an initial concentration of 100 nM, 5-fold dilution, 9 points) was added to the cells, and the plate was incubated at 4° C. for 30 min. The cells were washed twice with PBS, and then fluorescent secondary antibody R-PE-conjugated AffiniPure Goat Anti-Human IgG, Fcγ Fragment Specific was added. The cells were incubated at 4° C. for 30 min. The cells were washed twice with PBS and then resuspended, and finally, fluorescence signals were detected using a BD Accuri C5 (BD Bioscience) flow cytometer.

[2] = biological target: T2, human MUC16 protein endogenously expressed on cells (human, UniProt Q8WXI7 1-14507); test: flow cytometry, OVCAR3 cells (endogenous human MUC16), PE anti-human IgG Fc secondary, MFI; EC50 table under the plot, unit from the axis Conc.(nM)
T2 construct: whole, on cells; also called MUC16 on OVCAR3 cells; MUC16 in ovarian carcinoma tissue
Protocol: (1) Whether the anti-CD3/anti-MUC16 bispecific antibodies in the present invention could bind to the MUC16 protein endogenously expressed on human ovarian carcinoma cells (OVCAR3) (Cell Bank of Type Culture Collection Committee of the Chinese Academy of Sciences, Cat #TCHu228) was determined by cell binding experiments.
The experiments were performed using flow cytometry. OVCAR3 cells were digested, centrifuged and collected. The cells were resuspended in a PBS solution, and seeded into a 96-well plate (Corning, Cat #3799) at 1×10⁵ cells/well. The 96-well plate was centrifuged and then the supernatant was discarded. 100 μL of the serially diluted test bispecific antibody (at a maximum concentration of 200 nM, 5-fold dilution from 100 nM, 9 concentration points in total) was added to the OVCAR3 cells. The plate was incubated at 4° C. for 30 min and centrifuged (1000 rpm, 5 min), and then the supernatant was discarded. 100 μL of PBS solution was added to each well, and the cells were washed twice. 100 μL of fluorescent secondary antibody R-PE-conjugated AffiniPure Goat Anti-Human IgG, Fcγ Fragment Specific (Jackson ImmunoResearch, Cat #109-116-098) diluted in a ratio of 1:200 was then added. The cells were incubated at 4° C. for 30 min. After the cells were washed twice with the PBS solution, 100 μL of PBS solution was added to each well to resuspend the cells, and finally, fluorescence signals were detected using a BD Accuri C5 (BD Bioscience) flow cytometer according to the manufacturer's instructions. REGN4018 was used as a positive control.

[3] = biological target: T3, human CD3 protein endogenously expressed on Jurkat cells (human, UniProt P07766 23-207); test: flow cytometry, Jurkat cells (endogenous CD3), PE anti-human IgG Fc secondary, MFI; EC50 table under the plot, unit from the axis Conc.(nM)
T3 construct: whole, on cells; The whole CD3 complex is on the cells; also called CD3 on Jurkat cells; CD3 on Jurkat/NFAT-luc cells
Protocol: (§2) (3) Whether the anti-CD3/anti-MUC16 bispecific antibodies in the present invention could bind to the CD3 protein endogenously expressed on Jurkat cells (Cell Bank of Type Culture Collection Committee of the Chinese Academy of Sciences, Cat #SCSP-513) was determined by cell binding experiments. Detection was performed using the flow cytometry described above, with the following differences: the dilution gradient for the test bispecific antibody was: a maximum concentration of 200 nM, starting from a second concentration of 100 nM, 5-fold dilution, 10 points; the bispecific antibodies were added to Jurkat cells, and the cells were incubated at 4° C. for 30 min. The cells were washed twice with PBS, and then fluorescent secondary antibody R-PE-conjugated AffiniPure Goat Anti-Human IgG, Fcγ Fragment Specific was added. The cells were incubated at 4° C. for 30 min. The cells were washed twice with PBS and then resuspended, and finally, fluorescence signals were detected using a BD Accuri C5 (BD Bioscience) flow cytometer.

[4] = biological target: T1, rhesus monkey MUC16 protein (ECT_TM …); test: flow cytometry, 293T/rhesus MUC16 cells as printed on the sheet and in the legend (the example, paragraph 611, speaks of cynomolgus MUC16), PE anti-human IgG Fc secondary, MFI; EC50 table under the plot, unit from the axis Conc.(nM); curve still rising at the top concentration of 100 nM, the value lies beyond the range shown
Protocol: as §1

[5] = biological target: T3, human CD3 protein endogenously …; test: flow cytometry, Jurkat cells (endogenous CD3), PE anti-human IgG Fc secondary, MFI; EC50 table under the plot, unit from the axis Conc.(nM); curve still rising at the top concentration
Protocol: as §2

T3 sequence (P07766 23-207): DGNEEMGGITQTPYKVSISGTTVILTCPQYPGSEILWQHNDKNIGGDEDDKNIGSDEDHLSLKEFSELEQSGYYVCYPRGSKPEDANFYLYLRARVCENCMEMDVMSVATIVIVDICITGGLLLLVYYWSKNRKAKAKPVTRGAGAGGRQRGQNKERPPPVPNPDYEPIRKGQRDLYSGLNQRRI

B1: anti-CD3/MUC16 bispecific antibody 2MCH7-23L2 (bispecific antibody, human IgG1, kappa, L234A L235A)
heavy 1: not shown
heavy 2: EVQLVESGGGLVQPGGSLKLSCAASGFTFSTYAMNWVRQAPGKGLEWVGRIRSKYNNYATYYADSVKDRFTISRDDSKNTLYLQMNSLKTEDTAVYYCTRHGNFGNSYVSWFAYWGQGTTVTVSSGGGGSGGGGSGGGGSQAVVTQEPSLTVSPGGTVTLTCRSSTGAVTTSNYANWVQQKPGQAPRGLIGGTNKRAPGVPARFSGSLLGGKAALTLSGAQPEDEAEYFCALWYSNLWVFGGGTKLTVLGEPKSSDKTHTCPPCPAPEAAGGPSVFLFPPKPKDTLMISRTPEVTCVVVAVSHEDPEVKFNWYVDGVEVHNAKTKPREEQYNSTYRVVSVLTVLHQDWLNGKEYKCKVSNKALAAPIEKTISKAKGQPREPQVCTLPPSRDELTKNQVSLSCAVKGFYPSDIAVEWESNGQPENNYKTTPPVLDSDGSFFLVSKLTVDKSRWQQGNVFSCSVMHEALHNHYTQKSLSLSPGK
light: EIVLTQSPATLSLSPGERATLSCRASSSVIYMSWYQQKPGQAPRLLIYGTSTLASGIPARFSGSGSGTDFTLTISSLEPEDFAVYYCQQWSSNPFTFGQGTKLEIKRTVAAPSVFIFPPSDEQLKSGTASVVCLLNNFYPREAKVQWKVDNALQSGNSQESVTEQDSKDSTYSLSSTLTLSKADYEKHKVYACEVTHQGLSSPVTKSFNRGEC
notes: 2MCH7-KIH-Knob (VH-CH1-VH-CH1-Fc) + 23L2ScFv-Hole + two light chains MCL4 LC
EC50 [1]: 48.4 nM
EC50 [2]: 2.78 nM
EC50 [3]: 14 nM

B2: anti-CD3/MUC16 bispecific antibody MCH7-23L2 (bispecific antibody, human IgG1, kappa, L234A L235A)
heavy 1: B1 heavy 2
heavy 2: not shown
light: B1 light
notes: 23L2ScFv-Hole + MCH7-KIH-Knob + one light chain MCL4 LC
EC50 [2]: 17.2 nM
EC50 [4]: 182 nM
EC50 [5]: 70.7 nM
